Results: the Immune Epitope Database (IEDB)

How the values were obtained:
HLA-A*03:01 = assay: IEDB peptide-MHC binding, purified MHC/direct/fluorescence; filed as Kd, often an IC50 or EC50 that approximates it; ≥ and ≤ were set here for values at or beyond the usual limits of such assays
HLA-B*15:17 = assay: as above
HLA-A*02:12 = assay: as above
HLA-A*29:02 = assay: as above
HLA-B*27:03 = assay: as above
HLA-B*18:01 = assay: as above
HLA-A*02:06 = assay: as above; conditions: source organism: Vibrio vulnificus YJ016
HLA-B*51:01 = assay: as above
HLA-A*02:01 = assay: as above
HLA-B*46:01 = assay: as above
HLA-B*39:01 = assay: as above
HLA-B*15:01 = assay: as above
HLA-A*02:19 = assay: as above
HLA-B*57:01 = assay: as above
HLA-A*24:03 = assay: as above
HLA-A*26:01 = assay: as above
HLA-B*27:05 = assay: IEDB peptide-MHC binding, purified MHC/competitive/fluorescence; filed as Kd, often an IC50 or EC50 that approximates it; ≥ and ≤ were set here for values at or beyond the usual limits of such assays
HLA-A*01:01 = assay: as above
HLA-B*53:01 = assay: as above
HLA-A*30:02 = assay: as above
HLA-B*08:01 = assay: as above
HLA-B*14:02 = assay: as above
HLA-A*11:01 = assay: as above
HLA-B*44:02 = assay: as above
HLA-B*58:01 = assay: as above
HLA-A*66:01 = assay: as above
HLA-B*40:01 = assay: as above
HLA-A*30:01 = assay: as above; conditions: source organism: Vibrio vulnificus YJ016
HLA-B*07:02 = assay: as above; conditions: source organism: Vibrio vulnificus YJ016
HLA-A*23:01 [1] = assay: as above; conditions: source organism: Vibrio vulnificus YJ016
HLA-A*02:16 = assay: IEDB peptide-MHC binding, purified MHC/direct/fluorescence; filed as Kd, often an IC50 or EC50 that approximates it; ≥ and ≤ were set here for values at or beyond the usual limits of such assays; conditions: source organism: Brucella melitensis bv. 1 str. 16M
HLA-A*02:11 = assay: as above; conditions: source organism: Brucella melitensis bv. 1 str. 16M
HLA-A*02:03 = assay: as above; conditions: source organism: Brucella melitensis bv. 1 str. 16M
HLA-A*68:02 = assay: as above; conditions: source organism: Brucella melitensis bv. 1 str. 16M
HLA-A*23:01 [2] = assay: as above; conditions: source organism: Brucella melitensis bv. 1 str. 16M
[3] = source organism: Vibrio vulnificus YJ016
[4] = source organism: Brucella melitensis bv. 1 str. 16M

**Q.** For SVFELSNFA, which Kd (HLA-A*03:01; [3]) is on record?
**A.** Its Kd is ≥ 20 µM.

**Q.** And the Kd (HLA-B*15:17; [3])?
**A.** Its Kd is ≥ 20 µM.

**Q.** And the Kd (HLA-A*02:12; [3])?
**A.** Its Kd is 0.679 µM.

**Q.** And the Kd (HLA-A*29:02; [3])?
**A.** Its Kd is ≥ 20 µM.

**Q.** What about the Kd (HLA-B*27:03; [3]) of the same sequence?
**A.** Its Kd is ≥ 20 µM.

**Q.** And the Kd (HLA-B*18:01; [3])?
**A.** The Kd was ≥ 20 µM.

**Q.** And the Kd (HLA-A*02:06)?
**A.** The Kd was 0.002 µM.

**Q.** And the Kd (HLA-B*51:01; [3])?
**A.** The Kd was ≥ 20 µM.

**Q.** And the Kd (HLA-A*02:01; [3])?
**A.** The Kd was 0.008 µM.

**Q.** What about the Kd (HLA-B*46:01; [3]) of the same sequence?
**A.** Its Kd is ≥ 20 µM.

**Q.** And the Kd (HLA-B*39:01; [3])?
**A.** The Kd was ≥ 20 µM.

**Q.** And the Kd (HLA-B*15:01; [3])?
**A.** Its Kd is ≥ 20 µM.

**Q.** And the Kd (HLA-A*02:19; [3])?
**A.** Its Kd is ≥ 20 µM.

**Q.** What about the Kd (HLA-B*57:01; [3]) of the same sequence?
**A.** The Kd was ≥ 20 µM.

**Q.** And the Kd (HLA-A*24:03; [3])?
**A.** The Kd was ≥ 20 µM.

**Q.** And the Kd (HLA-A*26:01; [3])?
**A.** Its Kd is ≥ 20 µM.

**Q.** And the Kd (HLA-B*27:05; [3])?
**A.** The Kd was ≥ 5 µM.

**Q.** What about the Kd (HLA-A*01:01; [3]) of the same sequence?
**A.** Its Kd is ≥ 5 µM.

**Q.** What about the Kd (HLA-B*53:01; [3]) of the same sequence?
**A.** Its Kd is ≥ 5 µM.

**Q.** What about the Kd (HLA-A*30:02; [3]) of the same sequence?
**A.** The Kd was ≥ 5 µM.

**Q.** And the Kd (HLA-B*08:01; [3])?
**A.** Its Kd is ≥ 5 µM.

**Q.** And the Kd (HLA-B*14:02; [3])?
**A.** Its Kd is ≥ 5 µM.

**Q.** And the Kd (HLA-A*11:01; [3])?
**A.** The Kd was ≥ 5 µM.

**Q.** What about the Kd (HLA-B*44:02; [3]) of the same sequence?
**A.** The Kd was ≥ 5 µM.

**Q.** What about the Kd (HLA-B*58:01; [3]) of the same sequence?
**A.** Its Kd is ≥ 5 µM.

**Q.** And the Kd (HLA-A*66:01; [3])?
**A.** Its Kd is ≥ 5 µM.

**Q.** What about the Kd (HLA-B*40:01; [3]) of the same sequence?
**A.** The Kd was ≥ 5 µM.

**Q.** And the Kd (HLA-A*30:01)?
**A.** Its Kd is ≥ 5 µM.

**Q.** What about the Kd (HLA-B*07:02) of the same sequence?
**A.** Its Kd is ≥ 5 µM.

**Q.** What about the Kd (HLA-A*23:01 [1]) of the same sequence?
**A.** The Kd was ≥ 5 µM.

**Q.** For TTRAVNMEV, which Kd (HLA-A*03:01; [4]) is on record?
**A.** Its Kd is ≥ 20 µM.

**Q.** What about the Kd (HLA-B*15:17; [4]) of the same sequence?
**A.** Its Kd is ≥ 20 µM.

**Q.** And the Kd (HLA-A*02:12; [4])?
**A.** The Kd was ≥ 20 µM.

**Q.** And the Kd (HLA-A*29:02; [4])?
**A.** The Kd was ≥ 20 µM.

**Q.** What about the Kd (HLA-B*27:03; [4]) of the same sequence?
**A.** The Kd was ≥ 20 µM.

**Q.** And the Kd (HLA-B*18:01; [4])?
**A.** Its Kd is ≥ 20 µM.

**Q.** And the Kd (HLA-A*02:16)?
**A.** Its Kd is ≥ 20 µM.

**Q.** What about the Kd (HLA-B*51:01; [4]) of the same sequence?
**A.** Its Kd is ≥ 20 µM.

**Q.** What about the Kd (HLA-A*02:01; [4]) of the same sequence?
**A.** Its Kd is ≥ 20 µM.

**Q.** What about the Kd (HLA-B*46:01; [4]) of the same sequence?
**A.** The Kd was ≥ 20 µM.

**Q.** What about the Kd (HLA-A*02:11) of the same sequence?
**A.** The Kd was ≥ 20 µM.

**Q.** What about the Kd (HLA-B*39:01; [4]) of the same sequence?
**A.** Its Kd is ≥ 20 µM.

**Q.** And the Kd (HLA-A*02:03)?
**A.** Its Kd is ≥ 20 µM.

**Q.** And the Kd (HLA-B*15:01; [4])?
**A.** Its Kd is ≥ 20 µM.

**Q.** What about the Kd (HLA-A*02:19; [4]) of the same sequence?
**A.** The Kd was ≥ 20 µM.

**Q.** And the Kd (HLA-B*57:01; [4])?
**A.** The Kd was ≥ 20 µM.

**Q.** What about the Kd (HLA-A*68:02) of the same sequence?
**A.** Its Kd is ≤ 0.001 µM.

**Q.** What about the Kd (HLA-A*24:03; [4]) of the same sequence?
**A.** Its Kd is ≥ 20 µM.

**Q.** What about the Kd (HLA-A*26:01; [4]) of the same sequence?
**A.** The Kd was ≥ 20 µM.

**Q.** What about the Kd (HLA-A*23:01 [2]) of the same sequence?
**A.** The Kd was ≥ 20 µM.

**Q.** What about the Kd (HLA-B*27:05; [4]) of the same sequence?
**A.** The Kd was ≥ 5 µM.

**Q.** What about the Kd (HLA-A*01:01; [4]) of the same sequence?
**A.** The Kd was ≥ 5 µM.

**Q.** And the Kd (HLA-B*53:01; [4])?
**A.** The Kd was ≥ 5 µM.

**Q.** What about the Kd (HLA-A*30:02; [4]) of the same sequence?
**A.** The Kd was ≥ 5 µM.

**Q.** What about the Kd (HLA-B*08:01; [4]) of the same sequence?
**A.** The Kd was ≥ 5 µM.

**Q.** What about the Kd (HLA-B*14:02; [4]) of the same sequence?
**A.** The Kd was ≥ 5 µM.

**Q.** And the Kd (HLA-A*11:01; [4])?
**A.** The Kd was ≥ 5 µM.

**Q.** And the Kd (HLA-B*44:02; [4])?
**A.** The Kd was ≥ 5 µM.

**Q.** What about the Kd (HLA-B*58:01; [4]) of the same sequence?
**A.** The Kd was ≥ 5 µM.

**Q.** And the Kd (HLA-A*66:01; [4])?
**A.** The Kd was ≥ 5 µM.

**Q.** What about the Kd (HLA-B*40:01; [4]) of the same sequence?
**A.** The Kd was ≥ 5 µM.
